{
  "source": "patent US20020119572",
  "proteins": {"B1": {"name": "S-protein of Ribonuclease S (protein)", "chain": "SSSNYCNQMMKSRNLTKDRCKPVNTFVHESLADVQAVCSQKNVACKNGQTNCYQSYSTMSITDCRETGSSKYPNCAYKTTQANKHIIVACEGNPYVPVHFDASV"}},
  "molecular_target": "T1, gold nanoparticle linked S18 peptide",
  "T1 chain": "CGGKETAAAKFERQHMDS",
  "data": [
    {"protein": "B1", "values": [
      {"measurement": "RF power level at 50% RNase S activity (poly C hydrolysis)", "value": -4, "unit": "dBm at the 50% activity"},
      {"measurement": "RNase S activity (digested polyC, absorption at 280 nm) with RFMF on and off", "value": "The activity with the RFMF on was less than with the RFMF off"}
    ]}
  ]
}
